Laboratory results reported in IntAct's records for PubMed 11604410.

B1: Diablo IAP-binding mitochondrial protein (Mus musculus), Q9JIQ3 (parent)
chain: MAALRSWVTRSVCSLFRYRQRFPVLANSKKRCFSELIKPWHKTVLTGFGMTLCAVPIAQKSEPQSLSNEALMRRAVSLVTDSTSTFLSQTTYALIEAITEYTKAVYTLVSLYRQYTSLLGKMNSQEEDEVWQVIIGARVEMTSKQQEYLKLETTWMTAVGLSEMAAEAAYQTGADQASITARNHIQLVKSQVQEVRQLSQKAETKLAEAQTKELHQKAQEVSDEGADQEEEAYLRED
B2: Serine protease HTRA2, mitochondrial (Mus musculus), Q9JIY5 (parent)
chain: MAALKAGRGANWSLRAWRALGGIFWRKPPLLAPDLRALLTSGTPDSQIWMTYGTPSLPAQVPEGFLASRADLTSRTPDLWARLNVGTSGSSDQEARRSPGSRRREWLAVAVGAGGAVVLLLWGWGRGLSTVLAAVPAPPPTSPRSQYNFIADVVEKTAPAVVYIEILDRHPFSGREVPISNGSGFVVASDGLIVTNAHVVADRRRVRVRLPSGDTYEAMVTAVDPVADIATLRIQTKEPLPTLPLGRSADVRQGEFVVAMGSPFALQNTITSGIVSSAQRPARDLGLPQNNVEYIQTDAAIDFGNSGGPLVNLDGEVIGVNTMKVTAGISFAIPSDRLREFLHRGEKKNSWFGTSGSQRRYIGVMMLTLTPSILIELQLREPSFPDVQHGVLIHKVILGSPAHRAGLRPGDVILAIGEKLAQNAEDVYEAVRTQSQLAVRIRRGSETLTLYVTPEVTE

Variants of: B1
Conditions: with xiap_mouse Xiap

Question: For MAALRSWVTRSVCSLFRYRQRFPVLANSKKRCFSELIKPWHKTVLTGFGMTLCGVPIAQKSEPQSLSNEALMRRAVSLVTDSTSTFLSQTTYALIEAITEYTKAVYTLVSLYRQYTSLLGKMNSQEEDEVWQVIIGARVEMTSKQQEYLKLETTWMTAVGLSEMAAEAAYQTGADQASITARNHIQLVKSQVQEVRQLSQKAETKLAEAQTKELHQKAQEVSDEGADQEEEAYLRED [A54G], which “effect of a mutation on the interaction” value is on record?
Answer: disrupting interaction

Variants of: B2
Conditions: with xiap_human XIAP

Question: For MAALKAGRGANWSLRAWRALGGIFWRKPPLLAPDLRALLTSGTPDSQIWMTYGTPSLPAQVPEGFLASRADLTSRTPDLWARLNVGTSGSSDQEARRSPGSRRREWLAVAVGAGGAVVLLLWGWGRGLSTVLAAVPAPPPTSPGSQYNFIADVVEKTAPAVVYIEILDRHPFSGREVPISNGSGFVVASDGLIVTNAHVVADRRRVRVRLPSGDTYEAMVTAVDPVADIATLRIQTKEPLPTLPLGRSADVRQGEFVVAMGSPFALQNTITSGIVSSAQRPARDLGLPQNNVEYIQTDAAIDFGNSGGPLVNLDGEVIGVNTMKVTAGISFAIPSDRLREFLHRGEKKNSWFGTSGSQRRYIGVMMLTLTPSILIELQLREPSFPDVQHGVLIHKVILGSPAHRAGLRPGDVILAIGEKLAQNAEDVYEAVRTQSQLAVRIRRGSETLTLYVTPEVTE [R144G], which “effect of a mutation on the interaction” value is on record?
Answer: disrupting interaction

Variants of: B2
Conditions: with xiap_human XIAP
Remark: another data set of the same source

Question: Which “effect of a mutation on the interaction” value does the source give for MAALKAGRGANWSLRAWRALGGIFWRKPPLLAPDLRALLTSGTPDSQIWMTYGTPSLPAQVPEGFLASRADLTSRTPDLWARLNVGTSGSSDQEARRSPGSRRREWLAVAVGAGGAVVLLLWGWGRGLSTVLAAVPAPPPTSPRSQINFIADVVEKTAPAVVYIEILDRHPFSGREVPISNGSGFVVASDGLIVTNAHVVADRRRVRVRLPSGDTYEAMVTAVDPVADIATLRIQTKEPLPTLPLGRSADVRQGEFVVAMGSPFALQNTITSGIVSSAQRPARDLGLPQNNVEYIQTDAAIDFGNSGGPLVNLDGEVIGVNTMKVTAGISFAIPSDRLREFLHRGEKKNSWFGTSGSQRRYIGVMMLTLTPSILIELQLREPSFPDVQHGVLIHKVILGSPAHRAGLRPGDVILAIGEKLAQNAEDVYEAVRTQSQLAVRIRRGSETLTLYVTPEVTE [Y147I] here?
Answer: increasing interaction
